Experiment [1] deals with HLA-A*03:01. In words: IEDB peptide-MHC binding, purified MHC/direct/fluorescence; filed as Kd, often an IC50 or EC50 that approximates it; ≥ and ≤ were set here for values at or beyond the usual limits of such assays.
For experiment [2], the target named is HLA-A*11:01. The experiment is described as above.
The target in experiment [3] is HLA-A*29:02. The experiment is described as above. Particulars: source organism: West Nile virus.
In experiment [4] the target is HLA-A*31:01. The experiment is described as above.
Experiment [5] concerns the target HLA-B*15:01. The description is as above.
Experiment [6] has as its target HLA-B*15:09. The experiment is described as above.
The target in experiment [7] is HLA-B*18:01. The experiment is described as above. Conditions: source organism: West Nile virus.
The target of experiment [8] is HLA-B*27:05. The description is as above.
In experiment [9] the target is HLA-B*39:01. The experiment is described as above.
The target of experiment [10] is HLA-B*40:01. The experiment is described as above.
Experiment [11] addresses HLA-B*44:02. The description is as above.
The target of experiment [12] is HLA-B*46:01. The experiment is described as above.
Experiment [13] addresses HLA-B*48:01. The description is as above.
Experiment [14] has as its target HLA-B*57:01. The experiment is described as above.
In experiment [15] the target is HLA-B*58:01. The description is as above.
In experiment [16] the target is HLA-C*05:01. The experiment is described as above. Particulars: source organism: West Nile virus.
For experiment [17], the target named is HLA-A*01:01. Described as above.
The target of experiment [18] is HLA-A*02:01. The experiment is described as above.
Experiment [19] addresses HLA-A*26:01. The description is as above. Conditions: source organism: Yersinia pestis.
Experiment [20] deals with HLA-A*69:01. The experiment is described as above. Conditions: source organism: Yersinia pestis.
Experiment [21] addresses HLA-B*07:02. Described as above.
The target of experiment [22] is HLA-B*08:01. The description is as above. Particulars: source organism: Yersinia pestis.
Experiment [23] concerns the target HLA-B*15:02. The description is as above.
Experiment [24] addresses HLA-B*35:01. The experiment is described as above. Particulars: source organism: Yersinia pestis.
Experiment [25] has as its target HLA-C*04:01. The experiment is described as above. Conditions: source organism: Influenza A virus (A/turkey/Ohio/313053/2004(H3N2)).
The target of experiment [26] is HLA-A*24:02. Description: IEDB peptide-MHC binding, purified MHC/competitive/fluorescence; filed as Kd, often an IC50 or EC50 that approximates it; ≥ and ≤ were set here for values at or beyond the usual limits of such assays.
For experiment [27], the target named is HLA-B*08:02. Description: IEDB peptide-MHC binding, purified MHC/direct/fluorescence; filed as Kd, often an IC50 or EC50 that approximates it; ≥ and ≤ were set here for values at or beyond the usual limits of such assays. Conditions: source organism: Giardia lamblia ATCC 50803.
The target of experiment [28] is HLA-B*38:01. The description is as above. Particulars: source organism: Giardia lamblia ATCC 50803.
Experiment [29] concerns the target HLA-A*69:01. Description: IEDB peptide-MHC binding, purified MHC/competitive/fluorescence; filed as Kd, often an IC50 or EC50 that approximates it; ≥ and ≤ were set here for values at or beyond the usual limits of such assays. Conditions: source organism: Giardia lamblia ATCC 50803.
In experiment [30] the target is HLA-B*15:17. Described as above. Conditions: source organism: Giardia lamblia ATCC 50803.
The target of experiment [31] is HLA-A*68:23. Described as above.
The target of experiment [32] is HLA-B*15:42. The description is as above.
Experiment [33] deals with HLA-B*45:06. Described as above.
The target of experiment [34] is HLA-B*83:01. Described as above.
The target of experiment [35] is HLA-B*27:20. Described as above. Particulars: source organism: Escherichia coli 536.
Experiment [36] deals with HLA-B*40:01. Described as above. Particulars: source organism: Escherichia coli 536.
The target of experiment [37] is HLA-B*40:13. The description is as above. Conditions: source organism: Escherichia coli 536.
[38] abbreviates: source organism: West Nile virus.
Where [39] appears, read: source organism: Yersinia pestis.
[40] abbreviates: source organism: Giardia lamblia ATCC 50803.
Where [41] appears, read: source organism: Mycobacterium tuberculosis variant bovis BCG str. Pasteur 1173P2.
Setting [42] is: source organism: Escherichia coli 536.

TSDYINTSL: the Kd in experiment [1] (setting [38]) was ≥ 20 µM; in experiment [2] (setting [38]), ≥ 20 µM; in experiment [3] it was ≥ 20 µM; in experiment [4] (setting [38]) it was ≥ 20 µM; in experiment [5] (setting [38]), ≥ 20 µM; in experiment [6] (source organism: West Nile virus strain PTRoxo), ≥ 5 µM. For the same sequence, the Kd was ≥ 20 µM in experiment [7]; ≥ 20 µM in experiment [8] (setting [38]); 1.48 µM in experiment [9] (setting [38]); ≥ 20 µM in experiment [10] (setting [38]); ≥ 20 µM in [11] (setting [38]); ≥ 20 µM in experiment [12] (setting [38]). Besides, the Kd was ≥ 20 µM in experiment [13] (setting [38]), ≥ 20 µM in experiment [14] (setting [38]), ≥ 20 µM in experiment [15] (setting [38]) and 0.21 µM in experiment [16].
For MQLQLNCAY, the Kd in experiment [17] (setting [39]) is 2.77 µM; in experiment [18] (setting [39]), ≥ 20 µM; in experiment [1] (setting [39]), ≥ 20 µM; in experiment [2] (setting [39]), ≥ 20 µM; in experiment [19] it was ≥ 20 µM; in [4] (setting [39]), 6.35 µM. Besides, the Kd in [20] was 1.33 µM; in experiment [21] (setting [39]), ≥ 10 µM; in experiment [22], ≥ 20 µM; in [5] (setting [39]), 0.112 µM; in [23] (source organism: Yersinia pestis CA88-4125), 0.015 µM; in experiment [8] (setting [39]) it was ≥ 20 µM. Besides, the Kd in experiment [24] is 0.0337 µM; in [10] (setting [39]) it was 0.705 µM; in [11] (setting [39]) it was ≥ 20 µM; in [12] (setting [39]) it was ≥ 20 µM.
With RYSGFVRTL, the figures for the Kd in [25] and in experiment [26] (source organism: Influenza A virus (A/turkey/Ohio/313053/2004(H3N2))) were ≥ 20 µM and 0.0011 µM, respectively.
Consider ETESVNSNY, for which the Kd is 0.0188 µM in experiment [17] (setting [40]); ≥ 20 µM in experiment [18] (setting [40]); ≥ 20 µM in experiment [1] (setting [40]); ≥ 20 µM in experiment [2] (setting [40]); ≥ 20 µM in experiment [4] (setting [40]); ≥ 20 µM in experiment [21] (setting [40]). The Kd in experiment [27], in experiment [5] (setting [40]), in [6] (setting [40]), in experiment [8] (setting [40]), in experiment [28] and in experiment [9] (setting [40]) was ≥ 20 µM throughout. Further, the Kd in experiment [10] (setting [40]), in experiment [12] (setting [40]), in [13] (setting [40]), in [14] (setting [40]), in experiment [15] (setting [40]) and in [29] was ≥ 20 µM throughout. For the same sequence, the Kd in experiment [30] is ≥ 20 µM.
Take TTFDLTLRR: the Kd was 0.0121 µM in experiment [31] (setting [41]), ≥ 5 µM in experiment [32] (setting [41]), ≥ 5 µM in [33] (setting [41]) and ≥ 5 µM in experiment [34] (setting [41]).
Regarding MYSDFHFI, the Kd in [26] (source organism: Influenza A virus (A/X-31(H3N2))) worked out at 0.146 µM.
As for RQLESRLGY, the Kd is ≥ 20 µM in experiment [18] (setting [39]); 0.0616 µM in experiment [1] (setting [39]); 0.13 µM in experiment [2] (setting [39]); ≥ 20 µM in experiment [19]; 0.288 µM in experiment [4] (setting [39]); ≥ 20 µM in experiment [20]. The Kd is ≥ 20 µM in [21] (setting [39]); ≥ 20 µM in experiment [22]; 0.146 µM in experiment [5] (setting [39]); 0.077 µM in experiment [23] (source organism: Yersinia enterocolitica subsp. enterocolitica 8081); 0.0656 µM in experiment [8] (setting [39]); 3.74 µM in experiment [10] (setting [39]). Also, the dissociation constant Kd in experiment [12] (setting [39]) and in experiment [15] (setting [39]) was ≥ 20 µM each time.
For the sequence KEMGFSPRL, the Kd was 0.121 µM in [31] (setting [42]); ≥ 5 µM in [32] (setting [42]); 0.176 µM in experiment [35]; 0.0103 µM in experiment [36]; 0.0336 µM in experiment [37]; ≥ 5 µM in experiment [33] (setting [42]). Moreover, the Kd in experiment [34] (setting [42]) is ≥ 5 µM.

Usually Kd stands for a measure of binding affinity in units of concentration. A lower Kd goes with tighter binding.

Values taken from the Immune Epitope Database (IEDB).
